Experimental data reported in article PMC9482650, “Quantitative fragmentomics allow affinity mapping of interactomes” (Nature Communications, 2022).
Substitutions are numbered along the chain they refer to.

T1: APBA2_2, Q99767
T1 sequence (Q99767 654-744, limits assumed, looked up): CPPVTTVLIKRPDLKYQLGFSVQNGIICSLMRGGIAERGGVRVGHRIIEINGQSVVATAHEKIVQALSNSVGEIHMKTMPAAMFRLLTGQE

T2: APBA3_1, O96018
T2 sequence (O96018 389-490, limits assumed, looked up): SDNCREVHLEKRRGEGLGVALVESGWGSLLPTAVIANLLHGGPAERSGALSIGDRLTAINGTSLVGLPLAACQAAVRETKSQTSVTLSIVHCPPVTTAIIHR

T3: GRIP1_4, Q9Y3R0
T3 sequence (Q9Y3R0 467-571, limits assumed, looked up): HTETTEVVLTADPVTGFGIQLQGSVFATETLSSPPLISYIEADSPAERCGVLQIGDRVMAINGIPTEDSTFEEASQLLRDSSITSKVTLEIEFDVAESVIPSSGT

T4: HTRA3, P83110
T4 sequence (P83110 354-453, limits assumed, looked up): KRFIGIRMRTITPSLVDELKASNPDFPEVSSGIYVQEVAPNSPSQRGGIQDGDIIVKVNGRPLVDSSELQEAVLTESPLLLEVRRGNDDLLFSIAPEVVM

T5: LIN7B, Q9HAP6
T5 sequence (Q9HAP6 88-185, limits assumed, looked up): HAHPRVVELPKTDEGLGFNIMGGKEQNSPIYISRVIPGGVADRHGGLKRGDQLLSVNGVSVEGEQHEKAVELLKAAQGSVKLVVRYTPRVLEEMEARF

T6: LIN7C, Q9NUP9
T6 sequence (Q9NUP9 88-185, limits assumed, looked up): T5 sequence (Q9HAP6 88-185, limits assumed, looked up) with A2S, D13E, V35I, V40I, Q65H, S79K, R89K, A96S

T7: MPDZ_5, O75970
T7 sequence (O75970 695-796, limits assumed, looked up): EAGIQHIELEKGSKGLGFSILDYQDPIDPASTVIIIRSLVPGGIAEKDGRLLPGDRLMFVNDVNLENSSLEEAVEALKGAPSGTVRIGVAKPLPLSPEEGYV

T8: NHERF3_3, Q5T2W1
T8 sequence (Q5T2W1 238-333, limits assumed, looked up): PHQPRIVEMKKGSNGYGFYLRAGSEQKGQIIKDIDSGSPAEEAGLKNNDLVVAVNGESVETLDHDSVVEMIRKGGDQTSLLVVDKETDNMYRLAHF

T9: PDZD7_3, Q9H5P4
T9 sequence (Q9H5P4 857-944, limits assumed, looked up): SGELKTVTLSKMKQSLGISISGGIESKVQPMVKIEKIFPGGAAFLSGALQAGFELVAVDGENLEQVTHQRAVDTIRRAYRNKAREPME


molecular target: AHNAK1, Q09666; experiment: holdup assay; design: key: below the threshold = too weak to quantify, mostly under pKd 3.1 to 4; settings: plain residues with an end cap or a label only (N-terminal biotin on a linker: ado-ado)
Sequence (Q09666 4-100): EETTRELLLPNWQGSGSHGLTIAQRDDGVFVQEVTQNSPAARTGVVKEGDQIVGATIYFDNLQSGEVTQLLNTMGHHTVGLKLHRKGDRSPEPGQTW

Row | Binder | pKd
1 | VGIERETDVL [EZH1, Q92800] | below the threshold
2 | ADRDHASDQL [CTBP1, Q13363] | below the threshold

molecular target: T1, APBA2_2, Q99767; experiment: holdup assay; design: key: below the threshold = too weak to quantify, mostly under pKd 3.1 to 4; settings: plain residues with an end cap or a label only (N-terminal biotin on a linker: ado-ado)

Row | Binder | pKd
3 | VGIERETDVL [EZH1, Q92800] | below the threshold
4 | ADRDHASDQL [CTBP1, Q13363] | below the threshold

molecular target: T2, APBA3_1, O96018; experiment: holdup assay; design: key: below the threshold = too weak to quantify, mostly under pKd 3.1 to 4; settings: plain residues with an end cap or a label only (N-terminal biotin on a linker: ado-ado)

Row | Binder | pKd
5 | VGIERETDVL [EZH1, Q92800] | below the threshold
6 | ADRDHASDQL [CTBP1, Q13363] | below the threshold

molecular target: ARHGEF12, Q9NZN5-2; experiment: holdup assay; design: key: below the threshold = too weak to quantify, mostly under pKd 3.1 to 4; settings: plain residues with an end cap or a label only (N-terminal biotin on a linker: ado-ado)
Sequence (Q9NZN5 other isoform, or with tags, fused parts or gaps): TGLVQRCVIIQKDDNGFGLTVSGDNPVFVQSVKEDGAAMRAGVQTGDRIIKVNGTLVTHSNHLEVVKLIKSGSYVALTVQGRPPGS

Row | Binder | pKd
7 | VGIERETDVL [EZH1, Q92800] | below the threshold
8 | ADRDHASDQL [CTBP1, Q13363] | below the threshold

molecular target: DLG1_1, Q12959; experiment: holdup assay; design: key: below the threshold = too weak to quantify, mostly under pKd 3.1 to 4; settings: plain residues with an end cap or a label only (N-terminal biotin on a linker: ado-ado)

Row | Binder | pKd
9 | VGIERETDVL [EZH1, Q92800] | 3.6
10 | ADRDHASDQL [CTBP1, Q13363] | below the threshold

molecular target: DLG2_2, Q15700; experiment: holdup assay; design: key: below the threshold = too weak to quantify, mostly under pKd 3.1 to 4; settings: plain residues with an end cap or a label only (N-terminal biotin on a linker: ado-ado)
Sequence (Q15700 189-283): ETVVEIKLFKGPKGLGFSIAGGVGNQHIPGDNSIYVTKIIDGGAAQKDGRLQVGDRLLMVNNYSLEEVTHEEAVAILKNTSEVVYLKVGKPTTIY

Row | Binder | pKd
11 | VGIERETDVL [EZH1, Q92800] | below the threshold
12 | ADRDHASDQL [CTBP1, Q13363] | below the threshold

molecular target: DLG4_2, P78352; experiment: holdup assay; design: key: below the threshold = too weak to quantify, mostly under pKd 3.1 to 4; settings: plain residues with an end cap or a label only (N-terminal biotin on a linker: ado-ado)
Sequence (P78352 155-259): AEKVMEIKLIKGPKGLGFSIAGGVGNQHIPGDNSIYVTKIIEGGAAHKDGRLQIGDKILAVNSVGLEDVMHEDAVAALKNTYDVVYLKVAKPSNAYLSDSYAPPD

Row | Binder | pKd
13 | VGIERETDVL [EZH1, Q92800] | below the threshold
14 | ADRDHASDQL [CTBP1, Q13363] | below the threshold

molecular target: DLG4_3, P78352; experiment: holdup assay; design: key: below the threshold = too weak to quantify, mostly under pKd 3.1 to 4; settings: plain residues with an end cap or a label only (N-terminal biotin on a linker: ado-ado)
Sequence (P78352 306-403): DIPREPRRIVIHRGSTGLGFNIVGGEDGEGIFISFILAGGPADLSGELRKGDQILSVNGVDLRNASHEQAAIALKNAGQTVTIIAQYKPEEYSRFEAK

Row | Binder | pKd
15 | VGIERETDVL [EZH1, Q92800] | below the threshold
16 | ADRDHASDQL [CTBP1, Q13363] | below the threshold

molecular target: FRMPD3, Q5JV73; experiment: holdup assay; design: key: below the threshold = too weak to quantify, mostly under pKd 3.1 to 4; settings: plain residues with an end cap or a label only (N-terminal biotin on a linker: ado-ado)
Sequence (Q5JV73 12-100): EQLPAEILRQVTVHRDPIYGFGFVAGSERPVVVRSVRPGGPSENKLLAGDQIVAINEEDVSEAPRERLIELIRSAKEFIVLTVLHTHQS

Row | Binder | pKd
17 | VGIERETDVL [EZH1, Q92800] | below the threshold
18 | ADRDHASDQL [CTBP1, Q13363] | below the threshold

molecular target: T3, GRIP1_4, Q9Y3R0; experiment: holdup assay; design: key: below the threshold = too weak to quantify, mostly under pKd 3.1 to 4; settings: plain residues with an end cap or a label only (N-terminal biotin on a linker: ado-ado)

Row | Binder | pKd
19 | VGIERETDVL [EZH1, Q92800] | below the threshold
20 | ADRDHASDQL [CTBP1, Q13363] | below the threshold

molecular target: GRIP2_7, Q9C0E4; experiment: holdup assay; design: key: below the threshold = too weak to quantify, mostly under pKd 3.1 to 4; settings: plain residues with an end cap or a label only (N-terminal biotin on a linker: ado-ado)
Sequence (Q9C0E4 934-1023): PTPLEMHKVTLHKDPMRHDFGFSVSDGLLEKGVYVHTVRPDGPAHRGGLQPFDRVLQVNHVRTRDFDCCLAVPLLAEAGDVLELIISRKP

Row | Binder | pKd
21 | VGIERETDVL [EZH1, Q92800] | below the threshold
22 | ADRDHASDQL [CTBP1, Q13363] | below the threshold

molecular target: HTRA1, Q92743; experiment: holdup assay; design: key: below the threshold = too weak to quantify, mostly under pKd 3.1 to 4; settings: plain residues with an end cap or a label only (N-terminal biotin on a linker: ado-ado)
Sequence (Q92743 360-477): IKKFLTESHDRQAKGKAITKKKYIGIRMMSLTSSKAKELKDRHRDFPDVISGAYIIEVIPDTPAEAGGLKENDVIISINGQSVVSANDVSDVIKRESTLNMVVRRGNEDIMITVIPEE

Row | Binder | pKd
23 | VGIERETDVL [EZH1, Q92800] | 4.17
24 | ADRDHASDQL [CTBP1, Q13363] | below the threshold

molecular target: T4, HTRA3, P83110; experiment: holdup assay; design: key: below the threshold = too weak to quantify, mostly under pKd 3.1 to 4; settings: plain residues with an end cap or a label only (N-terminal biotin on a linker: ado-ado)

Row | Binder | pKd
25 | VGIERETDVL [EZH1, Q92800] | below the threshold
26 | ADRDHASDQL [CTBP1, Q13363] | below the threshold

molecular target: IL16_1, Q14005; experiment: holdup assay; design: key: below the threshold = too weak to quantify, mostly under pKd 3.1 to 4; settings: plain residues with an end cap or a label only (N-terminal biotin on a linker: ado-ado)
Sequence (Q14005 210-306): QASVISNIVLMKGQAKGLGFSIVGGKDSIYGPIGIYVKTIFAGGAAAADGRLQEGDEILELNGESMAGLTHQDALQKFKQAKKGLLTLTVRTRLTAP

Row | Binder | pKd
27 | VGIERETDVL [EZH1, Q92800] | below the threshold
28 | ADRDHASDQL [CTBP1, Q13363] | below the threshold

molecular target: IL16_4, Q14005; experiment: holdup assay; design: key: below the threshold = too weak to quantify, mostly under pKd 3.1 to 4; settings: plain residues with an end cap or a label only (N-terminal biotin on a linker: ado-ado)
Sequence (Q14005 1229-1329): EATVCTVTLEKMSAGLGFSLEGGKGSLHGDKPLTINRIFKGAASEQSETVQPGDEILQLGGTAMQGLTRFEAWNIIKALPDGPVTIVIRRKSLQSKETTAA

Row | Binder | pKd
29 | VGIERETDVL [EZH1, Q92800] | 3.48
30 | ADRDHASDQL [CTBP1, Q13363] | below the threshold

molecular target: Inadl_10, Q8NI35; experiment: holdup assay; design: key: below the threshold = too weak to quantify, mostly under pKd 3.1 to 4; settings: plain residues with an end cap or a label only (N-terminal biotin on a linker: ado-ado)
Sequence (Q8NI35 1673-1763): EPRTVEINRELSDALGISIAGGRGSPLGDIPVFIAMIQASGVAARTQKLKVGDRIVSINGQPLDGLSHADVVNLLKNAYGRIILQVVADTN

Row | Binder | pKd
31 | VGIERETDVL [EZH1, Q92800] | below the threshold
32 | ADRDHASDQL [CTBP1, Q13363] | below the threshold

molecular target: Inadl_5, Q8NI35; experiment: holdup assay; design: key: below the threshold = too weak to quantify, mostly under pKd 3.1 to 4; settings: plain residues with an end cap or a label only (N-terminal biotin on a linker: ado-ado)
Sequence (Q8NI35 673-780): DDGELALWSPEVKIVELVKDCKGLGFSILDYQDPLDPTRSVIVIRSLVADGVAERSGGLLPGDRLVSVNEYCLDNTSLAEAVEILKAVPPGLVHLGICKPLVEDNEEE

Row | Binder | pKd
33 | VGIERETDVL [EZH1, Q92800] | below the threshold
34 | ADRDHASDQL [CTBP1, Q13363] | below the threshold

molecular target: LAP2, Q96RT1; experiment: holdup assay; design: key: below the threshold = too weak to quantify, mostly under pKd 3.1 to 4; settings: plain residues with an end cap or a label only (N-terminal biotin on a linker: ado-ado)
Sequence (Q96RT1 other isoform, or with tags, fused parts or gaps): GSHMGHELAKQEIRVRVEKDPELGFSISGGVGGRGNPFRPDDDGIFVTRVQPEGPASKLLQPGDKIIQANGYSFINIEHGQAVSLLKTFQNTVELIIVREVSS

Row | Binder | pKd
35 | VGIERETDVL [EZH1, Q92800] | below the threshold
36 | ADRDHASDQL [CTBP1, Q13363] | below the threshold

molecular target: LDB3, O75112; experiment: holdup assay; design: key: below the threshold = too weak to quantify, mostly under pKd 3.1 to 4; settings: plain residues with an end cap or a label only (N-terminal biotin on a linker: ado-ado)
Sequence (O75112 1-94): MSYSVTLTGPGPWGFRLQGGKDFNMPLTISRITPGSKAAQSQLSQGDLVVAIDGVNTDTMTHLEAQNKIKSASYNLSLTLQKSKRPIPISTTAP

Row | Binder | pKd
37 | VGIERETDVL [EZH1, Q92800] | below the threshold
38 | ADRDHASDQL [CTBP1, Q13363] | below the threshold

molecular target: T5, LIN7B, Q9HAP6; experiment: holdup assay; design: key: below the threshold = too weak to quantify, mostly under pKd 3.1 to 4; settings: plain residues with an end cap or a label only (N-terminal biotin on a linker: ado-ado)

Row | Binder | pKd
39 | VGIERETDVL [EZH1, Q92800] | 3.53
40 | ADRDHASDQL [CTBP1, Q13363] | below the threshold

molecular target: T6, LIN7C, Q9NUP9; experiment: holdup assay; design: key: below the threshold = too weak to quantify, mostly under pKd 3.1 to 4; settings: plain residues with an end cap or a label only (N-terminal biotin on a linker: ado-ado)

Row | Binder | pKd
41 | VGIERETDVL [EZH1, Q92800] | below the threshold
42 | ADRDHASDQL [CTBP1, Q13363] | 3.96

molecular target: LNX1_3, Q8TBB1; experiment: holdup assay; design: key: below the threshold = too weak to quantify, mostly under pKd 3.1 to 4; settings: plain residues with an end cap or a label only (N-terminal biotin on a linker: ado-ado)
Sequence (Q8TBB1 500-596): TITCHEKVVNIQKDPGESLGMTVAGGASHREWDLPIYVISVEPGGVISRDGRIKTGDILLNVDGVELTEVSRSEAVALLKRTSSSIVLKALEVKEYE

Row | Binder | pKd
43 | VGIERETDVL [EZH1, Q92800] | below the threshold
44 | ADRDHASDQL [CTBP1, Q13363] | below the threshold

molecular target: MAGI2_3, Q86UL8; experiment: holdup assay; design: key: below the threshold = too weak to quantify, mostly under pKd 3.1 to 4; settings: plain residues with an end cap or a label only (N-terminal biotin on a linker: ado-ado)
Sequence (Q86UL8 600-682): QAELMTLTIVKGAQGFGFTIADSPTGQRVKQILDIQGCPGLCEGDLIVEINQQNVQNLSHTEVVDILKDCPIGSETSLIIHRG

Row | Binder | pKd
45 | VGIERETDVL [EZH1, Q92800] | below the threshold
46 | ADRDHASDQL [CTBP1, Q13363] | below the threshold

molecular target: MAGI2_4, Q86UL8; experiment: holdup assay; design: key: below the threshold = too weak to quantify, mostly under pKd 3.1 to 4; settings: plain residues with an end cap or a label only (N-terminal biotin on a linker: ado-ado)
Sequence (Q86UL8 772-865): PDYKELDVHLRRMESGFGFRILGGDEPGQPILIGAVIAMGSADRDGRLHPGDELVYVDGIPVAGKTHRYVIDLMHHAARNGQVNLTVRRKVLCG

Row | Binder | pKd
47 | VGIERETDVL [EZH1, Q92800] | below the threshold
48 | ADRDHASDQL [CTBP1, Q13363] | below the threshold

molecular target: T7, MPDZ_5, O75970; experiment: holdup assay; design: key: below the threshold = too weak to quantify, mostly under pKd 3.1 to 4; settings: plain residues with an end cap or a label only (N-terminal biotin on a linker: ado-ado)

Row | Binder | pKd
49 | VGIERETDVL [EZH1, Q92800] | below the threshold
50 | ADRDHASDQL [CTBP1, Q13363] | below the threshold

molecular target: T8, NHERF3_3, Q5T2W1; experiment: holdup assay; design: key: below the threshold = too weak to quantify, mostly under pKd 3.1 to 4; settings: plain residues with an end cap or a label only (N-terminal biotin on a linker: ado-ado)

Row | Binder | pKd
51 | VGIERETDVL [EZH1, Q92800] | below the threshold
52 | ADRDHASDQL [CTBP1, Q13363] | below the threshold

molecular target: PDLIM1, O00151; experiment: holdup assay; design: key: below the threshold = too weak to quantify, mostly under pKd 3.1 to 4; settings: plain residues with an end cap or a label only (N-terminal biotin on a linker: ado-ado)
Sequence (O00151 1-87): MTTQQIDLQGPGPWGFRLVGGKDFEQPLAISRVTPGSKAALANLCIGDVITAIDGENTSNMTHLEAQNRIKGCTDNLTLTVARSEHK

Row | Binder | pKd
53 | VGIERETDVL [EZH1, Q92800] | below the threshold
54 | ADRDHASDQL [CTBP1, Q13363] | below the threshold

molecular target: T9, PDZD7_3, Q9H5P4; experiment: holdup assay; design: key: below the threshold = too weak to quantify, mostly under pKd 3.1 to 4; settings: plain residues with an end cap or a label only (N-terminal biotin on a linker: ado-ado)

Row | Binder | pKd
55 | VGIERETDVL [EZH1, Q92800] | below the threshold
56 | ADRDHASDQL [CTBP1, Q13363] | below the threshold

molecular target: PDZRN4_1, Q6ZMN7; experiment: holdup assay; design: key: below the threshold = too weak to quantify, mostly under pKd 3.1 to 4; settings: plain residues with an end cap or a label only (N-terminal biotin on a linker: ado-ado)
Sequence (Q6ZMN7 213-318): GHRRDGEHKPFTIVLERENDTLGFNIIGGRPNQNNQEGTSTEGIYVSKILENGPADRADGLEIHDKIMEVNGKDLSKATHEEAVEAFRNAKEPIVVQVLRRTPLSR

Row | Binder | pKd
57 | VGIERETDVL [EZH1, Q92800] | below the threshold
58 | ADRDHASDQL [CTBP1, Q13363] | below the threshold
